Earlier results on one substance are cited in article PMC2739727.

The target in series [1] is IL-13Rα2 (Homo sapiens) (UniProt Q14627).
Series [2] deals with IL-13Rα1/IL-4Rα (Homo sapiens) (UniProt P78552).
Sequence of UniProt P78552 (P78552 22-343, chain 1 of 2): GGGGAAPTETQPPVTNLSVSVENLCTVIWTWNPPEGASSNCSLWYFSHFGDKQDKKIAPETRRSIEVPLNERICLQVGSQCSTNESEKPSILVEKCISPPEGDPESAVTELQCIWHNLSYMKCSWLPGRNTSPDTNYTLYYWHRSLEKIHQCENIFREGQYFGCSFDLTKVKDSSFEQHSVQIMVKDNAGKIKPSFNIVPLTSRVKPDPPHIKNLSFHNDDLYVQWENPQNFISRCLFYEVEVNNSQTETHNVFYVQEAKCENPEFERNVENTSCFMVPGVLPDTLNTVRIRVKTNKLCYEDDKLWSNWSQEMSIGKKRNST
Sequence of UniProt P78552 (P24394 26-232, chain 2 of 2, further chain): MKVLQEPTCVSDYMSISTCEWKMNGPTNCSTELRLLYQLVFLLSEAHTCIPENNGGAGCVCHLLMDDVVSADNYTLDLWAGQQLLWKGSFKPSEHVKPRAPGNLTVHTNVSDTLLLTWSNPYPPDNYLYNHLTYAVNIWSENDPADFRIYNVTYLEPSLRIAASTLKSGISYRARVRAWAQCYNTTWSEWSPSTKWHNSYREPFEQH

Sequence of UniProt Q14627 (Q14627 27-343): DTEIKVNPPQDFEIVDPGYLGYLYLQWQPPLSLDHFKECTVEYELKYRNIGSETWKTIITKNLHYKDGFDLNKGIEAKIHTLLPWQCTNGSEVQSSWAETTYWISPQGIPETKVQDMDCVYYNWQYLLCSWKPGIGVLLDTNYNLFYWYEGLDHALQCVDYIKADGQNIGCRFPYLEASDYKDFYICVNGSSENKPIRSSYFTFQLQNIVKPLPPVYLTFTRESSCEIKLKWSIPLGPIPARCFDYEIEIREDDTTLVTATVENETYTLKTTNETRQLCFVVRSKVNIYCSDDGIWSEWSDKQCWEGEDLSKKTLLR

As a reminder, the Kd is the concentration at which binding is half-saturated. As for IL-13 (from UniProt P35225), the Kd in series [1] and in series [2] was 0.2 nM in each case.
